From article PMC11840787, “Detection of an Intermediate in the Unfolding Process of the N-Terminal Domain of TDP-43” (ACS Omega, 2025)

B1: TDP-43 NTD (N-terminal domain of TAR DNA-binding protein 43), noncleaved, 99 residues (domain or fragment, UniProt Q13148 1-77, looked up)
chain: MSEYIRVTEDENDEPIEIPSEDDGTVLLSTVTAQFPGACGLRYRNPVSQCMRGVRLVEGILHAPDAGWGNLVYVVNY
notes: 99 residues in all with the 22-residue N-terminal tag, 11,081.29 Da; A cleaved 78-residue variant was used only for fluorescence kinetics, not for any test of the oligomeric state; also called noncleaved TDP-43 NTD; source: purified

What was measured:
[1] = target: TDP-43 NTD (Homo sapiens) (UniProt Q13148); details: cited from earlier work
[2] = target: TDP-43 (oligomer, isodesmic) NTD (Homo sapiens) (UniProt Q13148); details: cited from earlier work
[3] = target: the molecule itself; experiment: dynamic light scattering; 0.5 mg/mL (45 uM) protein in 4.5 M urea, DH recorded every 5 s, linear fit extrapolated to 0 s (unfolding intermediate)

Molecule	Kd [1] [µM]	Kd [2] [µM]	stoichiometry N [3]
TDP-43 NTD (from UniProt Q13148)	2.4	40	
B1			2
